Here are results for three molecules from US11858974 (RESQ BIOTECH, dated 2024).

This assay addresses T1, SOD1(A4V), Ala4Val variant of human Cu/Zn superoxide dismutase 1 (human, UniProt P00441 2-154, A4V).
T1 construct: Isolated from E. coli Origami 2(DE3) (pETSOD1(A4V) or pASK-SOD1 vectors); also called isolated SOD1(A4V); mutant SOD1
The experiment in a line: CD spectroscopy of isolated SOD1(A4V) incubated with synthetic cyclic peptide. How it is done: Appropriate amounts of synthetic cyclic peptides were added to either 40 µM SOD1(A4V) or 50 µM Aβ solutions at the desired cyclic peptide:target protein molar ratio. SOD1(A4V) structural changes were monitored for 90 d at 25° C., under quiescent conditions. Aβ structural changes were monitored for 30 d at 33° C. under quiescent conditions. CD spectra in the range 190-260 nm were recorded on a JASCO J-715 spectropolarimeter (Jasco Co., Japan) using quartz cuvettes with 1 mm path length. Each reported spectrum is the average of three scans at a rate of 100 nm·min^-1 and a resolution of 0.5 nm.

T1 sequence (P00441 2-154 A5V): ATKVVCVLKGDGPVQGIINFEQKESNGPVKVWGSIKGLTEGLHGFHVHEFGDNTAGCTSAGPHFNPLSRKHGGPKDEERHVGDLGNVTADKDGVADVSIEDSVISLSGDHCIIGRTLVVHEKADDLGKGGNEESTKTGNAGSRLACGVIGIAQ

B1: SOD1C5-4 (cyclo-TWSVW) (peptide)
peptide: TWSVW
modifications: head-to-tail cyclic peptide (cyclo-TWSVW), no free termini
notes: Made by solid-phase synthesis (CPC Scientific); Backbone-cyclised pentapeptide; also called SODC5-4; selected cyclic pentapeptide SOD1C5-4
On to B1, for which the binding result is reported as “binds”.

B2: AβC5-116 (cyclo-TAFDR) (peptide)
peptide: TAFDR
modifications: head-to-tail cyclic peptide (cyclo-TAFDR), no free termini
notes: Made by solid-phase synthesis (Genscript)
Consider B2, for which the binding result is given as “no binding”.

B3: AβC5-34 (cyclo-SASPT) (peptide)
peptide: SASPT
modifications: head-to-tail cyclic peptide (cyclo-SASPT), no free termini
notes: Made by solid-phase synthesis (Genscript); also called Aβ-targeting cyclic 5-peptide number 34
In the case of B3, the binding result is “no binding”.
